From patent publication US20210388087A1 (Chugai, published 2021)

Molecular target: T1, CD3 epsilon homodimer protein (UniProt P07766 23-126)
T1 construct: also called CD3 (CD3 epsilon)
Test: SPR Biacore T200, CD3e homodimer on chip, vs unaltered GLS3000 antibody

T1 sequence (P07766 23-126): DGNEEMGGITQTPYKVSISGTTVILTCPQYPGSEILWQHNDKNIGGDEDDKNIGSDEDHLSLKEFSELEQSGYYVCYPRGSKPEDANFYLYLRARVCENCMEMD

| Binder | ratio of amounts bound (Z=Y/X) |
| --- | --- |
| GLS3000 N28A (antibody, name in Kabat numbering, V domains shown, one-arm IgG as m2) VH: QVQLVESGGGVVQPGRSLRLSCAASGFTFSNAWMHWVRQAPGKGLEWVAQIKAKSNNYATYYAESVKGRFTISRDDSKNSLYLQMNSLKTEDTAVYYCRYVHYGAYYGVDAWGQGTTVTVSS VL: DIVMTQSPLSLPVTPGEPASISCRSSQSLVHSARNTYLHWYQQKPGQAPRLLIYKVSNRFSGVPDRFSGSGSGTDFTLKISRVEAEDVGVYYCGQGTQVPYTFGQGTKLEIK | 0.25 |
| GLS3000 N28L (antibody, name in Kabat numbering, V domains shown, one-arm IgG as m2) VH: QVQLVESGGGVVQPGRSLRLSCAASGFTFSNAWMHWVRQAPGKGLEWVAQIKAKSNNYATYYAESVKGRFTISRDDSKNSLYLQMNSLKTEDTAVYYCRYVHYGAYYGVDAWGQGTTVTVSS VL: DIVMTQSPLSLPVTPGEPASISCRSSQSLVHSLRNTYLHWYQQKPGQAPRLLIYKVSNRFSGVPDRFSGSGSGTDFTLKISRVEAEDVGVYYCGQGTQVPYTFGQGTKLEIK | 0.39 |
| GLS3000 N28D (antibody, name in Kabat numbering, V domains shown, one-arm IgG as m2) VH: QVQLVESGGGVVQPGRSLRLSCAASGFTFSNAWMHWVRQAPGKGLEWVAQIKAKSNNYATYYAESVKGRFTISRDDSKNSLYLQMNSLKTEDTAVYYCRYVHYGAYYGVDAWGQGTTVTVSS VL: DIVMTQSPLSLPVTPGEPASISCRSSQSLVHSDRNTYLHWYQQKPGQAPRLLIYKVSNRFSGVPDRFSGSGSGTDFTLKISRVEAEDVGVYYCGQGTQVPYTFGQGTKLEIK | 0.19 |
| GLS3000 N28G (antibody, name in Kabat numbering, V domains shown, one-arm IgG as m2) VH: QVQLVESGGGVVQPGRSLRLSCAASGFTFSNAWMHWVRQAPGKGLEWVAQIKAKSNNYATYYAESVKGRFTISRDDSKNSLYLQMNSLKTEDTAVYYCRYVHYGAYYGVDAWGQGTTVTVSS VL: DIVMTQSPLSLPVTPGEPASISCRSSQSLVHSGRNTYLHWYQQKPGQAPRLLIYKVSNRFSGVPDRFSGSGSGTDFTLKISRVEAEDVGVYYCGQGTQVPYTFGQGTKLEIK | 0.46 |
| GLS3000 N28I (antibody, name in Kabat numbering, V domains shown, one-arm IgG as m2) VH: QVQLVESGGGVVQPGRSLRLSCAASGFTFSNAWMHWVRQAPGKGLEWVAQIKAKSNNYATYYAESVKGRFTISRDDSKNSLYLQMNSLKTEDTAVYYCRYVHYGAYYGVDAWGQGTTVTVSS VL: DIVMTQSPLSLPVTPGEPASISCRSSQSLVHSIRNTYLHWYQQKPGQAPRLLIYKVSNRFSGVPDRFSGSGSGTDFTLKISRVEAEDVGVYYCGQGTQVPYTFGQGTKLEIK | 0.44 |
| GLS3000 N28M (antibody, name in Kabat numbering, V domains shown, one-arm IgG as m2) VH: QVQLVESGGGVVQPGRSLRLSCAASGFTFSNAWMHWVRQAPGKGLEWVAQIKAKSNNYATYYAESVKGRFTISRDDSKNSLYLQMNSLKTEDTAVYYCRYVHYGAYYGVDAWGQGTTVTVSS VL: DIVMTQSPLSLPVTPGEPASISCRSSQSLVHSMRNTYLHWYQQKPGQAPRLLIYKVSNRFSGVPDRFSGSGSGTDFTLKISRVEAEDVGVYYCGQGTQVPYTFGQGTKLEIK | 0.39 |
| GLS3000 N28F (antibody, name in Kabat numbering, V domains shown, one-arm IgG as m2) VH: QVQLVESGGGVVQPGRSLRLSCAASGFTFSNAWMHWVRQAPGKGLEWVAQIKAKSNNYATYYAESVKGRFTISRDDSKNSLYLQMNSLKTEDTAVYYCRYVHYGAYYGVDAWGQGTTVTVSS VL: DIVMTQSPLSLPVTPGEPASISCRSSQSLVHSFRNTYLHWYQQKPGQAPRLLIYKVSNRFSGVPDRFSGSGSGTDFTLKISRVEAEDVGVYYCGQGTQVPYTFGQGTKLEIK | 0.46 |
| GLS3000 N28K (antibody, name in Kabat numbering, V domains shown, one-arm IgG as m2) VH: QVQLVESGGGVVQPGRSLRLSCAASGFTFSNAWMHWVRQAPGKGLEWVAQIKAKSNNYATYYAESVKGRFTISRDDSKNSLYLQMNSLKTEDTAVYYCRYVHYGAYYGVDAWGQGTTVTVSS VL: DIVMTQSPLSLPVTPGEPASISCRSSQSLVHSKRNTYLHWYQQKPGQAPRLLIYKVSNRFSGVPDRFSGSGSGTDFTLKISRVEAEDVGVYYCGQGTQVPYTFGQGTKLEIK | 0.44 |
| GLS3000 N28E (antibody, name in Kabat numbering, V domains shown, one-arm IgG as m2) VH: QVQLVESGGGVVQPGRSLRLSCAASGFTFSNAWMHWVRQAPGKGLEWVAQIKAKSNNYATYYAESVKGRFTISRDDSKNSLYLQMNSLKTEDTAVYYCRYVHYGAYYGVDAWGQGTTVTVSS VL: DIVMTQSPLSLPVTPGEPASISCRSSQSLVHSERNTYLHWYQQKPGQAPRLLIYKVSNRFSGVPDRFSGSGSGTDFTLKISRVEAEDVGVYYCGQGTQVPYTFGQGTKLEIK | 0.4 |
| GLS3000 N28H (antibody, name in Kabat numbering, V domains shown, one-arm IgG as m2) VH: QVQLVESGGGVVQPGRSLRLSCAASGFTFSNAWMHWVRQAPGKGLEWVAQIKAKSNNYATYYAESVKGRFTISRDDSKNSLYLQMNSLKTEDTAVYYCRYVHYGAYYGVDAWGQGTTVTVSS VL: DIVMTQSPLSLPVTPGEPASISCRSSQSLVHSHRNTYLHWYQQKPGQAPRLLIYKVSNRFSGVPDRFSGSGSGTDFTLKISRVEAEDVGVYYCGQGTQVPYTFGQGTKLEIK | 0.42 |

Further lines, results first:

| ratio of amounts bound (Z=Y/X) | Binder |
| --- | --- |
| 1.1 | GLS3000 N30F (antibody, name in Kabat numbering, V domains shown, one-arm IgG as m2) VH: QVQLVESGGGVVQPGRSLRLSCAASGFTFSNAWMHWVRQAPGKGLEWVAQIKAKSNNYATYYAESVKGRFTISRDDSKNSLYLQMNSLKTEDTAVYYCRYVHYGAYYGVDAWGQGTTVTVSS VL: DIVMTQSPLSLPVTPGEPASISCRSSQSLVHSNRFTYLHWYQQKPGQAPRLLIYKVSNRFSGVPDRFSGSGSGTDFTLKISRVEAEDVGVYYCGQGTQVPYTFGQGTKLEIK |
| 0.34 | GLS3000 N30D (antibody, name in Kabat numbering, V domains shown, one-arm IgG as m2) VH: QVQLVESGGGVVQPGRSLRLSCAASGFTFSNAWMHWVRQAPGKGLEWVAQIKAKSNNYATYYAESVKGRFTISRDDSKNSLYLQMNSLKTEDTAVYYCRYVHYGAYYGVDAWGQGTTVTVSS VL: DIVMTQSPLSLPVTPGEPASISCRSSQSLVHSNRDTYLHWYQQKPGQAPRLLIYKVSNRFSGVPDRFSGSGSGTDFTLKISRVEAEDVGVYYCGQGTQVPYTFGQGTKLEIK |
| 0.41 | GLS3000 N28W (antibody, name in Kabat numbering, V domains shown, one-arm IgG as m2) VH: QVQLVESGGGVVQPGRSLRLSCAASGFTFSNAWMHWVRQAPGKGLEWVAQIKAKSNNYATYYAESVKGRFTISRDDSKNSLYLQMNSLKTEDTAVYYCRYVHYGAYYGVDAWGQGTTVTVSS VL: DIVMTQSPLSLPVTPGEPASISCRSSQSLVHSWRNTYLHWYQQKPGQAPRLLIYKVSNRFSGVPDRFSGSGSGTDFTLKISRVEAEDVGVYYCGQGTQVPYTFGQGTKLEIK |
| 0.37 | GLS3000 N28Q (antibody, name in Kabat numbering, V domains shown, one-arm IgG as m2) VH: QVQLVESGGGVVQPGRSLRLSCAASGFTFSNAWMHWVRQAPGKGLEWVAQIKAKSNNYATYYAESVKGRFTISRDDSKNSLYLQMNSLKTEDTAVYYCRYVHYGAYYGVDAWGQGTTVTVSS VL: DIVMTQSPLSLPVTPGEPASISCRSSQSLVHSQRNTYLHWYQQKPGQAPRLLIYKVSNRFSGVPDRFSGSGSGTDFTLKISRVEAEDVGVYYCGQGTQVPYTFGQGTKLEIK |
| 0.36 | GLS3000 N28P (antibody, name in Kabat numbering, V domains shown, one-arm IgG as m2) VH: QVQLVESGGGVVQPGRSLRLSCAASGFTFSNAWMHWVRQAPGKGLEWVAQIKAKSNNYATYYAESVKGRFTISRDDSKNSLYLQMNSLKTEDTAVYYCRYVHYGAYYGVDAWGQGTTVTVSS VL: DIVMTQSPLSLPVTPGEPASISCRSSQSLVHSPRNTYLHWYQQKPGQAPRLLIYKVSNRFSGVPDRFSGSGSGTDFTLKISRVEAEDVGVYYCGQGTQVPYTFGQGTKLEIK |
| 0.5 | GLS3000 N30A (antibody, name in Kabat numbering, V domains shown, one-arm IgG as m2) VH: QVQLVESGGGVVQPGRSLRLSCAASGFTFSNAWMHWVRQAPGKGLEWVAQIKAKSNNYATYYAESVKGRFTISRDDSKNSLYLQMNSLKTEDTAVYYCRYVHYGAYYGVDAWGQGTTVTVSS VL: DIVMTQSPLSLPVTPGEPASISCRSSQSLVHSNRATYLHWYQQKPGQAPRLLIYKVSNRFSGVPDRFSGSGSGTDFTLKISRVEAEDVGVYYCGQGTQVPYTFGQGTKLEIK |
| 0.32 | GLS3000 N28S (antibody, name in Kabat numbering, V domains shown, one-arm IgG as m2) VH: QVQLVESGGGVVQPGRSLRLSCAASGFTFSNAWMHWVRQAPGKGLEWVAQIKAKSNNYATYYAESVKGRFTISRDDSKNSLYLQMNSLKTEDTAVYYCRYVHYGAYYGVDAWGQGTTVTVSS VL: DIVMTQSPLSLPVTPGEPASISCRSSQSLVHSSRNTYLHWYQQKPGQAPRLLIYKVSNRFSGVPDRFSGSGSGTDFTLKISRVEAEDVGVYYCGQGTQVPYTFGQGTKLEIK |
| 0.36 | GLS3000 N28V (antibody, name in Kabat numbering, V domains shown, one-arm IgG as m2) VH: QVQLVESGGGVVQPGRSLRLSCAASGFTFSNAWMHWVRQAPGKGLEWVAQIKAKSNNYATYYAESVKGRFTISRDDSKNSLYLQMNSLKTEDTAVYYCRYVHYGAYYGVDAWGQGTTVTVSS VL: DIVMTQSPLSLPVTPGEPASISCRSSQSLVHSVRNTYLHWYQQKPGQAPRLLIYKVSNRFSGVPDRFSGSGSGTDFTLKISRVEAEDVGVYYCGQGTQVPYTFGQGTKLEIK |
| 0.26 | GLS3000 N28Y (antibody, name in Kabat numbering, V domains shown, one-arm IgG as m2) VH: QVQLVESGGGVVQPGRSLRLSCAASGFTFSNAWMHWVRQAPGKGLEWVAQIKAKSNNYATYYAESVKGRFTISRDDSKNSLYLQMNSLKTEDTAVYYCRYVHYGAYYGVDAWGQGTTVTVSS VL: DIVMTQSPLSLPVTPGEPASISCRSSQSLVHSYRNTYLHWYQQKPGQAPRLLIYKVSNRFSGVPDRFSGSGSGTDFTLKISRVEAEDVGVYYCGQGTQVPYTFGQGTKLEIK |
| 0.45 | GLS3000 N28T (antibody, name in Kabat numbering, V domains shown, one-arm IgG as m2) VH: QVQLVESGGGVVQPGRSLRLSCAASGFTFSNAWMHWVRQAPGKGLEWVAQIKAKSNNYATYYAESVKGRFTISRDDSKNSLYLQMNSLKTEDTAVYYCRYVHYGAYYGVDAWGQGTTVTVSS VL: DIVMTQSPLSLPVTPGEPASISCRSSQSLVHSTRNTYLHWYQQKPGQAPRLLIYKVSNRFSGVPDRFSGSGSGTDFTLKISRVEAEDVGVYYCGQGTQVPYTFGQGTKLEIK |
| 0.44 | GLS3000 N30E (antibody, name in Kabat numbering, V domains shown, one-arm IgG as m2) VH: QVQLVESGGGVVQPGRSLRLSCAASGFTFSNAWMHWVRQAPGKGLEWVAQIKAKSNNYATYYAESVKGRFTISRDDSKNSLYLQMNSLKTEDTAVYYCRYVHYGAYYGVDAWGQGTTVTVSS VL: DIVMTQSPLSLPVTPGEPASISCRSSQSLVHSNRETYLHWYQQKPGQAPRLLIYKVSNRFSGVPDRFSGSGSGTDFTLKISRVEAEDVGVYYCGQGTQVPYTFGQGTKLEIK |
